From PMC9259988, “Heterologous Expression and Evaluation of Novel Plasmodium falciparum Transmission Blocking Vaccine Candidates” (Frontiers in Immunology, 2022)

Target: the molecule itself
Test: non-reducing and reducing SDS-PAGE; purified protein run non-reduced and reduced (10 mM dithiothreitol) on a 4-20% Bis-Tris gel, Coomassie-type staining

B1: Pf3D7_1143700 fragment 1-100 expressed in Drosophila melanogaster S2 cells (TBC1^DM) (domain or fragment, Plasmodium falciparum 3D7, UniProt Q8IHS8 1-100, looked up)
chain: MKVKIGSFENFLERLNNIKEEDIIINDENTEEMFSSFLITFYKENEGRYTIQEQEYINNLLNILINKIRDNKNGRNFFSNLLCIHFKSITPYFINVKLKD
notes: Conserved Plasmodium protein, unknown function, PF3D7_1143700, Plasmodium falciparum 3D7 genome (PlasmoDB), residues 1-100; codon-optimised synthetic gene; secreted; the dimer is held by a disulphide bond
Q: How did the “stoichiometry N” value turn out when B1 was run?
A: 2
